The target of this assay is Glypican-3 (GPC3), surface antigen of HepG2 cells (Homo sapiens (endogenous, HepG2), UniProt P51654). Description: co-IP.
Glypican-3 (GPC3), surface antigen of HepG2 cells, sequence (P51654 25-580): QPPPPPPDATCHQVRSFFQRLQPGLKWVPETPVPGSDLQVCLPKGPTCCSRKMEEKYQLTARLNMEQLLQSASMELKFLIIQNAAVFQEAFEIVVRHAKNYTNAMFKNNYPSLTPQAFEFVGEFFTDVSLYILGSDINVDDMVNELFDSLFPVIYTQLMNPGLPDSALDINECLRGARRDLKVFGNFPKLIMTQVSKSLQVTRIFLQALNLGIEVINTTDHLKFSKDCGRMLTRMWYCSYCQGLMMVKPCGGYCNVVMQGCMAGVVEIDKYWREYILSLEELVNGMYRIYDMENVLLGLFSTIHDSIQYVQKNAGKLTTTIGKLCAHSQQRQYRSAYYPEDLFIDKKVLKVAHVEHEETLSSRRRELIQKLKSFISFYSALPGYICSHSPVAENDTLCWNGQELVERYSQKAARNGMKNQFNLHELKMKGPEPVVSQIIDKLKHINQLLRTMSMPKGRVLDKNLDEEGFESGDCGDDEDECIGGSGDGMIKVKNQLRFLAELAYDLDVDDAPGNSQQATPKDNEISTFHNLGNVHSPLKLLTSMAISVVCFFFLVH

B1: Hbp-hGC33-scFv/Myc fusion protein displayed on the membrane surface of E. coli outer membrane vesicles (hGC33-OMVs) (scFv, V domains shown)
VH: QVQLVQSGAEVKKPGASVKVSCKASGYTFTDYEMHWVRQAPGQGLEWMGALDPKTGDTAYSQKFKGRVTLTADKSTSTAYMELSSLTSEDTAVYYCTRFYSYTYWGQGTLVTVSS
VL: DVVMTQSPLSLPVTPGEPASISCRSSQSLVHSNGNTYLHWYLQKPGQSPQLLIYKVSNRFSGVPDRFSGSGSGTDFTLKISRVEAEDVGVYYCSQNTHVPPTFGQGTKLEIK
For the molecule B1, the binding result is “binds”.

Values taken from paper PMC12106912 (International Journal of Nanomedicine, 2025).
